Assays:
[1] = target: T1, MASP-2 fragments (Homo sapiens, UniProt O00187); experiment: Inhibition of the enzymatic activities of the MASP-2 fragments by C1-inhibitor and alpha-2-macroglobulin; type: biochemical; settings: for molar excess of inhibitor that abolishes all cleavages by the MASP-2 fragments: preincubation, C2, C3, C3(NH3), C4 substrates
T1 construct: T7-Tag fragment Ala-Ser-Met (N, cleaved yes); made in house
Method: (§1) Reactivity toward C1-inhibitor and alpha-2-macroglobulin—Inhibition of the enzymatic activities of the MASP fragments by C1-inhibitor and alpha-2-macroglobulin were tested as follows. MASP-1 and MASP-2 fragments at concentrations selected in the C2, C3, C3(NH3) and C4 cleavage tests were incubated at 37° C. with excess molar ratios of either C1-inhibitor, alpha-2-macroglobulin, or buffer in 20 mM HEPES, 140 mM NaCl, pH 7.4 for 40 minutes. Complement substrates C2, C3, C3(NH3) or C4 were added at typical concentrations of 0.5-1 μM and the samples were further incubated for 20 minutes. The cleaved and uncleaved chains were visualized by reducing SDS-PAGE and the degree of inhibition was compared.

[2] = target: T2, MASP-1 CCP1-CCP2-SP (Homo sapiens, UniProt P48740); experiment: Inhibition of the enzymatic activities of the MASP-1 fragment by C1-inhibitor and alpha-2-macroglobulin; type: biochemical
T2 construct: made in house
T2 sequence (P48740 298-699): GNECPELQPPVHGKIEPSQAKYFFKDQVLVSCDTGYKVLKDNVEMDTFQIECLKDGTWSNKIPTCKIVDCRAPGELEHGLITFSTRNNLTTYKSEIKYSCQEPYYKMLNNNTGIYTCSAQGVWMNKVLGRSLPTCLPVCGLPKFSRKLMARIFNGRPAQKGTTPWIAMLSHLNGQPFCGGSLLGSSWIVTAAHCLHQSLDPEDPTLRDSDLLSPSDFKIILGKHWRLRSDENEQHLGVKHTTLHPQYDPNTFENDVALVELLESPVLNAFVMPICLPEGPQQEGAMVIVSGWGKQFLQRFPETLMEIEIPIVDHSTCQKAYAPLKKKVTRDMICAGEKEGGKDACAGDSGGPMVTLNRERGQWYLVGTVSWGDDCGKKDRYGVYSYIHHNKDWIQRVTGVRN
Method: as §1

[3] = marginal molar excess over the enzyme

T1 sequence (O00187 445-686 limits assumed): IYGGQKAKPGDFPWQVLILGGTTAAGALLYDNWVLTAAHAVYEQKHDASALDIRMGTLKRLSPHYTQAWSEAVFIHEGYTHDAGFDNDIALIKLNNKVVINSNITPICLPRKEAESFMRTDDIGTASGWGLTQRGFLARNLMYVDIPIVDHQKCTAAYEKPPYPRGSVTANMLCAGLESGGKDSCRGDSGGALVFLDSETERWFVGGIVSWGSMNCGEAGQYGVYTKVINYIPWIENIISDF
T1 sequence (O00187 291-444 partner limits assumed): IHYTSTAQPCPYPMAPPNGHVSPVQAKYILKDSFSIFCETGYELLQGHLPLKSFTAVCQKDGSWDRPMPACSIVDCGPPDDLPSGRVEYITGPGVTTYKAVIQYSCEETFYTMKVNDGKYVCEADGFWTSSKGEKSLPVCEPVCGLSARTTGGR

Substance | molar excess over the MASP-2 fragments capable of significantly hindering C2 and C4 cleavage ([1]; C2 and C4 cleavage) [fold] | molar excess over MASP-2 CCP1-CCP2-SP that blocks C3 cleavages ([1]; C3 cleavage) | molar excess of inhibitor that abolishes all cleavages by the MASP-2 fragments [1] | molar excess that completely blocks cleavage of C2 by the MASP-1 CCP1-CCP2-SP fragment ([2]; C2 cleavage) | molar excess over MASP-1 CCP1-CCP2-SP that blocks C3 cleavages ([2]; C3 cleavage) | effect on proteolytic activity of MASP-2 on all substrates, in words [1, 3] | effect on proteolytic activity of MASP-1 on all substrates, in words [2, 3]
alpha-2-macroglobulin: human alpha-2-macroglobulin isolated from plasma | 40 | 1-3 fold | 40 fold | 1-3 fold | 1-3 fold |  | 
C1-inhibitor: serpin C1-inhibitor purified from human serum |  |  | 1-3 fold |  |  | completely abolished | completely abolished

Reference: US8173397B2, “Folded recombinant catalytic fragments of multidomain serine proteases, preparation and uses thereof” (TargetEx Kft., priority 2002, dated 2012)
